From patent US20160060317A1
Each block holds one binder with its values, some of them ahead of it.

Molecular target: receptors for neurturin on the cell surface of human neuroblastoma cell line TGW (JCRB0618)
Experiment: cell-based or functional assay

- biological activity in vitro (tyrosine hydroxylase reporter gene, luciferase, TGW cells), EC50: 2.2 ng/ml
B1: human recombinant neurturin (unmodified protein), Q99748 96-197 (ligand)
chain: ARLGARPCGLRELEVRVSELGLGYASDETVLFRYCAGACEAAARVYDLGLRRLRQRRRLRRERVRAQPCCRPTAYEDEVSFLDAHSRYHTVHELSARECACV

- reporter gene activity (luciferase, SRE reporter in TGW cells), EC50: 9.7 ng/mL
B4: mono-mPEG-NHS-neurturin, Q99748 96-197; Q99748 96-197 (ligand)
chain 1: B1 chain
chain 2: B1 chain
modifications: here or on the partner: about 5 kDa linear PEG (mPEG-succinimidyl succinat reagent, NHS-method) on the N-terminal amino acid

Further lines, the binder ahead of its results:

B2: mono-CES0310-neurturin, Q99748 96-197; Q99748 96-197 (ligand)
chain 1: B1 chain
chain 2: B1 chain
modifications: here or on the partner: six-arm branched PEG of about 5 kDa on the N-terminal amino acid
- reporter gene activity (luciferase, SRE reporter in TGW cells), EC50: 12 ng/mL

B3: mono-mPEG-CHO-neurturin, Q99748 96-197; Q99748 96-197 (ligand)
chain 1: B1 chain
chain 2: B1 chain
modifications: here or on the partner: linear 5 kDa polyethylene glycol butyraldehyde-derived PEG on the N-terminal amino acid
- reporter gene activity (luciferase, SRE reporter in TGW cells), EC50: 7.4 ng/mL
